In this series the target is GST-HuD (UniProt P26378). Description: filter binding.
Sequence of GST-HuD (P26378 whole entry): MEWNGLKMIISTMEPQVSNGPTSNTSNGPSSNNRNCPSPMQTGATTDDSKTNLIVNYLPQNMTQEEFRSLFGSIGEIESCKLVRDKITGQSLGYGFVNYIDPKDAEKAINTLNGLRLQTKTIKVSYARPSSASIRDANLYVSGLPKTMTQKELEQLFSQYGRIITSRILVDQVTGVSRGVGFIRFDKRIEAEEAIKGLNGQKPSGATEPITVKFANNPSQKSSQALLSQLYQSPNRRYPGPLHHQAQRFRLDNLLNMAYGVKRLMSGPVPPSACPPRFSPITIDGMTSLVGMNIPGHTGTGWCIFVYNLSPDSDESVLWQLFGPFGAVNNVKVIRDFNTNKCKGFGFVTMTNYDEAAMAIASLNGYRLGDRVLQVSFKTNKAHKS

For orientation: Kd means the free concentration of one partner at which half of the binding sites on the other are occupied at equilibrium, for simple one-to-one binding. A high value points to a looser complex. “CCCUCCCUCUCUC [motif 1 oligoribonucleotide]” gave a Kd of 27.3 nM.
The figure for “UUUUGUUUUGUUU [motif 2 oligoribonucleotide]” is 6.9 nM.

Values taken from publication PMC2800223.
